{
  "source": "patent US20050053973A1",
  "about": "(published 2005)",
  "key": {"CD28 on monkey PBMC": {"target": "CD28 on monkey PBMC (monkey)", "assay": "cell-based or functional assay"}, "human serum albumin": {"target": "T1, human serum albumin (human, UniProt P02768 25-609)", "T1 construct": "also called HSA; HAS", "assay": "ELISA, 0.5 µg HSA per well, expression lysate, anti-HA-HRP, signal equal to or better than the anti-HSA trimer", "procedure": "ELISA plate wells were coated with 0.2 μg of CD40L or 0.5 μg of HAS, and 5 μl of the monomer expression clone lysate was applied to each well. The bound monomers (which were produced as a hemagglutinin (HA) fusion) were then detected by anti-HA-HRP conjugated antibody, developed by horse-radish peroxidase enzyme activity, and read at an OD of 450 nm."}, "human IgE": {"target": "human IgE (human, UniProt P01854 1-428)", "sequence (P01854 other isoform, or with tags, fused parts or gaps)": "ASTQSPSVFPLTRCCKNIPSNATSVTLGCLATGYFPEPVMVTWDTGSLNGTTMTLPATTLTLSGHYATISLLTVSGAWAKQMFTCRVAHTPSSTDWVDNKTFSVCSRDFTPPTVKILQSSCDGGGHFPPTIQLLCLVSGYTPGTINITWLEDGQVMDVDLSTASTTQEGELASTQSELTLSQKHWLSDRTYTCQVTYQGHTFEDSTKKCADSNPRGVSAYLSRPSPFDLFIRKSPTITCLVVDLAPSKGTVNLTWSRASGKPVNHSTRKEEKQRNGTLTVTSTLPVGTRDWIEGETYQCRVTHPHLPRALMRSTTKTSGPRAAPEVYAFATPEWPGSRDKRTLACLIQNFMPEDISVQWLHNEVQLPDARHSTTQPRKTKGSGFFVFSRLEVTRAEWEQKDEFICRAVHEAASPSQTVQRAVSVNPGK", "assay": "Biacore, human IgE coupled to a CM5 chip by NHS/EDC, sample protein in flow", "source_text": "Human IgE was immobilized to a CM5 chip (BiaCore) using standard NHS/EDC methods. Sample proteins were dialyzed into HBS buffer overnight, and the dialysis buffer was used as a running buffer for the experiment. Sample proteins were run successively over IgE or ethanolamine coated flow cells, and the data analyzed using the BiaEvaluation software package."}},
  "data": [
    {"binder": "CD28-A10 (designed binder) CGPGRFQCESGQCVPATWVCDGDDDCADGSDEKSCATTAPTCESNQFQCGSGQCLPGTWRCDGVNDCADSSDETGCGRPGPGATSAPAACGPGRFQCNNGNCVPQTLGCDGDNDCGDSSDEANCSAPASEPPGSL", "values": [
      {"measurement": "IC50, PBMC assay on monkey cells", "setting": "CD28 on monkey PBMC", "result": 7, "unit": "nM"}
    ]},
    {"binder": "CNPTGKFKCRSGRCVPRESCRCDGVDDCEDNSDEKDCQPHTSLQ (designed binder, HA fusion, tested as expression lysate)", "note": "[A1_34]", "values": [
      {"measurement": "binding result", "setting": "human serum albumin", "result": "binds"}
    ]},
    {"binder": "recombinant human FcERI protein (receptor, UniProt P12319 26-205, looked up, also called recombinant FcERI; recombinant soluble IgE receptor) VPQKPKVSLNPPWNRIFKGENVTLTCNGNNFFEVSSTKWFHNGSLSEETNSSLNIVNAKFEDSGEYKCQHQQVNESEPVYLEVFSDWLLLQASAEVVMEGQPLFLRCHGWRNWDVYKVIYYKDGEALKYWYENHNISITNATVEDSGTYYCTGKVWQLDYESEPLNITVIKAPREKYWLQ", "values": [
      {"measurement": "Kd", "setting": "human IgE", "result": 450, "unit": "nM"}
    ]}
  ]
}
